# Experimental data as given in the supplement of paper PMC10567573.
# B1: ZNF207 (parent)
# chain: FQPQPVQPQQGYIPPMAQPGLPPV
# Variants of: B1
# Assay: protein stability index of a GFP-peptide fusion (GPS, HEK-293T) (PSI 1-6); higher = more stable
# Conditions: c terminus: a fixed tail appended
# 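Further: lentivirally expressed fusions sorted by FACS into six bins by GFP to DsRed ratio, PSI derived from sequencing read proportions per bin multiplied by bin number.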
row,Variant,protein stability index
1,V6D,3.26
2,V6E,3.61
3,V6F,2.19
4,V6G,3.1
5,V6I,2.96
6,V6K,3.08
7,V6L,3.06
8,V6M,2.71
9,V6N,2.86
10,V6R,2.92
11,V6S,3.19
12,V6W,2.62
13,V6Y,2.75
14,Q7C,2.88
15,Q7D,3.26
16,Q7E,2.98
17,Q7F,2.72
18,Q7G,2.78
19,Q7H,2.82
20,Q7I,3.29
21,Q7K,3.04
22,Q7L,3.04
23,Q7M,3.21
24,Q7R,2.83

row,Variant,protein stability index
1,Q7S,3.5
2,Q7V,3.63
3,Q7W,2.25
4,Q7Y,2.5
5,P8A,3.27
6,P8C,2.54
7,P8D,3.32
8,P8E,3.22
9,P8F,2.88
10,P8G,2.96
11,P8H,2.89
12,P8I,3.1
13,P8K,3.15
14,P8L,3.19
15,P8M,2.47
16,P8N,3.03
17,P8Q,2.95
18,P8R,2.61
19,P8S,2.97
20,P8T,2.91
21,P8V,2.92
22,P8W,2.31
23,P8Y,2.53
24,Q9A,3.35

row,Variant,protein stability index
1,Q9C,2.77
2,Q9D,3.59
3,Q9E,3.45
4,Q9F,2.34
5,Q9G,2.74
6,Q9H,3.24
7,Q9I,2.89
8,Q9K,2.91
9,Q9L,2.54
10,Q9M,2.88
11,Q9N,2.72
12,Q9R,3.26
13,Q9S,3.43
14,Q9T,3.01
15,Q9V,3.61
16,Q9W,1.88
17,Q9Y,2.32
18,Q10A,2.84
19,Q10C,2.5
20,Q10D,3.54
21,Q10E,3.1
22,Q10F,2.31
23,Q10G,3.39
24,Q10H,2.62

row,Variant,protein stability index
1,Q10I,2.12
2,Q10K,2.98
3,Q10L,2.16
4,Q10M,2.81
5,Q10N,3.28
6,Q10P,3.07
7,Q10R,2.79
8,Q10S,2.86
9,Q10T,3.34
10,Q10V,2.04
11,Q10W,1.95
12,Q10Y,2.64
13,G11A,3.03
14,G11C,2.18
15,G11D,3.63
16,G11E,3.69
17,G11F,2.45
18,G11H,3.21
19,G11I,2.29
20,G11K,2.89
21,G11L,2.65
22,G11M,2.66
23,G11N,2.93
24,G11P,2.74

row,Variant,protein stability index
1,G11Q,3.18
2,G11R,3.21
3,G11S,2.8
4,G11T,2.6
5,G11V,2.56
6,G11W,2.19
7,G11Y,2.18
8,Y12A,3.75
9,Y12C,3.55
10,Y12D,3.73
11,Y12E,3.77
12,Y12F,2.81
13,Y12G,3.53
14,Y12H,3.54
15,Y12I,3.29
16,Y12K,3.7
17,Y12L,3.81
18,Y12M,3.72
19,Y12N,3.77
20,Y12P,3.6
21,Y12Q,4.03
22,Y12R,3.66
23,Y12S,3.81
24,Y12T,3.69

row,Variant,protein stability index
1,Y12V,3.86
2,Y12W,2.6
3,I13A,3.8
4,I13C,3.33
5,I13D,3.57
6,I13E,3.71
7,I13F,3.4
8,I13G,3.29
9,I13H,3.54
10,I13K,2.85
11,I13L,3.52
12,I13M,2.99
13,I13N,3.17
14,I13Q,3.59
15,I13R,3.16
16,I13S,3.58
17,I13V,3.44
18,I13W,2.56
19,I13Y,2.88
20,P14A,2.96
21,P14C,2.61
22,P14D,3.37
23,P14E,2.86
24,P14F,2.93

row,Variant,protein stability index
1,P14G,2.79
2,P14H,2.75
3,P14I,2.63
4,P14K,2.83
5,P14L,2.52
6,P14M,2.88
7,P14N,2.5
8,P14Q,2.74
9,P14R,2.81
10,P14S,3.08
11,P14T,2.75
12,P14V,2.9
13,P14W,1.98
14,P14Y,2.65
15,P15A,3.13
16,P15C,2.45
17,P15D,3.04
18,P15E,2.96
19,P15F,2.3
20,P15G,3.07
21,P15H,2.74
22,P15I,2.17
23,P15K,2.81
